Results published in US20120034231A1 (Novartis, published 2012).
Where two headings read alike, the source gives them in different places.

How the values were obtained:
[1] = molecular target: T1, human IL4Rα/Fc (human, UniProt P24394 26-232, limits assumed); experiment: ELISA, antigen directly coated, IgG4
T1 construct: also called rh IL4Ra/Fc
T1 sequence (looked up): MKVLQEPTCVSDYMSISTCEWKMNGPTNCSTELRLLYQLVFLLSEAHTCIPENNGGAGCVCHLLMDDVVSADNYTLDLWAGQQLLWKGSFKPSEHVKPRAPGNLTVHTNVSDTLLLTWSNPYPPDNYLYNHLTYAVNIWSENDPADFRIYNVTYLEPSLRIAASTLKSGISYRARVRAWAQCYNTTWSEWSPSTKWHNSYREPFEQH

[2] = molecular target: T2, cynomolgus IL12Rβ1 (cynomolgus, UniProt A0A2K5VWV1 24-662); experiment: FACS, 1 µg/ml IgG4, BaF3 cells expressing cyno IL12Rβ1
T2 construct: whole, on cells; also called cyno IL12Rβ1; Cyno IL-12Rβ1
Protocol: (§1) Cells of the respective cell line (BaF3 cells stable transfected with cyno and human IL12Rβ1; HEK EBNA and Jurkat cells stable transfected with cyno IL12Rβ1) were counted and adjusted to 2×10⁷ cells/ml in PBS/3% FCS/0.02% NaN₃ (FAGS buffer). FAGS staining was performed in V-bottom 96-well microtiter plates (NUNC™, Wiesbaden, Germany) and 1×10⁵ cells per well were mixed with a) purified Fab fragments or b) purified IgG4 or c) positive control antibody (mouse anti IL12Rβ1, R&D Systems, Cat#: MAB839), diluted in FACS buffer and incubated at […] for 1 h. Cells were then washed 2× with 200 μl FACS buffer/well and taken up in 100 μl phycoerythrin-conjugated goat anti-human IgG (H+L) secondary antibody (Jackson ImmunoResearch) which has been diluted 1:200 in FACS buffer. After 45 min incubation at 4° C. cells were washed 3× with FAGS buffer, resuspended in 100 μl of FACS buffer and cell surface binding of IL12Rβ1 specific antibodies was measured via FL2 fluorescence intensity of cells in FACSCalibur™ (Becton Dickinson).

[3] = molecular target: T2, cynomolgus IL12Rβ1; experiment: FACS on Baf3 cells transfected with cyno IL12Rβ1, IgG4
Protocol: as §1

[4] = molecular target: T3, human IL12Rβ1 (human, UniProt P42701 24-662); experiment: FACS on Baf3 cells transfected with human IL12Rβ1, IgG4
T3 construct: On stably transfected Ba/F3 cells in FACS; on primary human T cells within PBMC in the functional assay; also called human IL12Rβ1 transfected Baf3 cells; Ba/F3/IL12Rβ1 expressing cells
Protocol: as §1

[5] = molecular target: T2, cynomolgus IL12Rβ1; experiment: FACS, 1 µg/ml Fab, Jurkat cells expressing cyno IL12Rβ1
Protocol: as §1

[6] = molecular target: T2, cynomolgus IL12Rβ1; experiment: FACS, 1 µg/ml Fab, HEK cells expressing cyno IL12Rβ1
Protocol: as §1

[7] = molecular target: T4, recombinant human IL12Rβ1/Fc fusion protein (human, UniProt P42701 24-545); experiment: solution equilibrium titration (SET), BioVeris ECL, Fab
T4 construct: Bought from R&D Systems; Partly used biotinylated; also called rh IL12Rβ1

[8] = molecular target: T4, recombinant human IL12Rβ1/Fc fusion …; experiment: BioVeris competition; Fab titrated with IL12Rβ1/Fc, competitor rhIL-23 on beads
Protocol: (§2) For the IL12 and IL23 binding inhibition assay, 25 μg recombinant human IL12 and 20 μg IL23 (R&D Systems) were directly coupled (NHS/EDC coupling) to 250 μl carboxylic acid M-270 Dynal magnetic beads (2×109 beads/ml), 50 μl Fab antibodies per well (20 nM stock) in 1:4 dilution steps (Fab concentration: 0.6 pM-10 nM) were incubated for 2 h with 50 μl of 40-100 pM IL12Rβ1/Fc fusion in 96 well plates (Nunc). 25 μl IL12 or IL23 coated beads and 1:500 diluted Streptavidin detection antibody labeled with BV-tag™ according to instructions of supplier (BioVeris Europe) were added to each well and incubated for 1.5 h. Detection was performed by BioVeris M-384 SERIES® Workstation (BioVeris Europe). EC50 determination was performed by evaluation of the resulting data by a 4-parameter logistic fit model (XLfit, IDBS).

[9] = molecular target: T4, recombinant human IL12Rβ1/Fc fusion …; experiment: BioVeris competition; Fab titrated with IL12Rβ1/Fc, competitor rhIL-12 on beads
Protocol: as §2

[10] = molecular target: T4, recombinant human IL12Rβ1/Fc fusion …; experiment: solution equilibrium titration (SET), BioVeris ECL, Fab; remark: listed apart in the source

binding result [1] | MFI (mean fluorescent intensity) [2] | EC50 [3] [nM] | EC50 [4] [nM] | MFI (mean fluorescent intensity) [5] | MFI (mean fluorescent intensity) [6] | Kd [7] [nM] | EC50 [8] [nM] | EC50 [9] [nM] | Kd [10] [nM] | Binder
no binding | 134 | 0.073 | 0.143 |  |  |  |  |  |  | MOR05271 IgG4 (antibody, V domains shown, IgG4) VH: QVQLKESGPALVKPTQTLTLTCTFSGFSLSTSTMGVSWIRQPPGKALEWLAWIYWDDDKDYSTSLKSRLTISKDTSKNQVVLTMTNMDPVDTATYYCARANPDLGYFDYWGQGTLVTVSS VL: DIALTQPASVSGSPGQSITISCTGTSSDLGESNYVSWYQQHPGKAPKVMIYDVNKRPSGVSNRFSGSKSGNTASLTISGLQAEDEADYYCGSYDEEDNVFGGGTKLTVLG
 |  |  |  | 3 | 2 | 0.021 | 0.025 | 0.01 | 0.021 | MOR05271 Fab (Fab, V domains shown) VH: QVQLKESGPALVKPTQTLTLTCTFSGFSLSTSTMGVSWIRQPPGKALEWLAWIYWDDDKDYSTSLKSRLTISKDTSKNQVVLTMTNMDPVDTATYYCARANPDLGYFDYWGQGTLVTVSS VL: DIALTQPASVSGSPGQSITISCTGTSSDLGESNYVSWYQQHPGKAPKVMIYDVNKRPSGVSNRFSGSKSGNTASLTISGLQAEDEADYYCGSYDEEDNVFGGGTKLTVLG
 |  |  |  | 249 | 368 | 0.059 | 0.17 | 0.09 | 0.059 | MOR05286 Fab (Fab, V domains shown, also called MOR5286) VH: QVQLKESGPALVKPTQTLTLTCTFSGFSLSTSGMGVSWIRQPPGKALEWLALIDWTDDKYYSTSLKTRLTISKDTSKNQVVLTMTNMDPVDTATYYCARTVGKGLYRVDNWGQGTLVTVSS VL: DIELTQPPSVSVAPGQTARISCSGDNLGSKFAYWYQQKPGQAPVLVIYDDSKRPSGIPERFSGSNSGNTATLTISGTQAEDEADYYCQSWDSSSGNDVFGGGTKLTVLG
no binding | 271 | 4.8 | 2.4 |  |  |  |  |  |  | MOR05286 IgG4 (antibody, V domains shown, IgG4; also called MOR5286) VH: QVQLKESGPALVKPTQTLTLTCTFSGFSLSTSGMGVSWIRQPPGKALEWLALIDWTDDKYYSTSLKTRLTISKDTSKNQVVLTMTNMDPVDTATYYCARTVGKGLYRVDNWGQGTLVTVSS VL: DIELTQPPSVSVAPGQTARISCSGDNLGSKFAYWYQQKPGQAPVLVIYDDSKRPSGIPERFSGSNSGNTATLTISGTQAEDEADYYCQSWDSSSGNDVFGGGTKLTVLG
no binding | 350 | 0.931 | 0.9 |  |  |  |  |  |  | MOR05278 IgG4 (antibody, V domains shown, IgG4) VH: QVQLVESGGGLVQPGGSLRLSCAASGFTFSSYGMSWVRQAPGKGLEWVSYIEPKLFWYATFYAASVKGRFTISRDNSKNTLYLQMNSLRAEDTAVYYCARNDFMEPAYFALWGQGTLVTVSS VL: DIELTQPPSVSVAPGQTARISCSGDNLGSYYAYWYQQKPGQAPVGVIYDDSERPSGIPERFSGSNSGNTATLTISGTQAEDEADYYCSSYTYSKNNVFGGGTKLTVLG
 |  |  |  | 4 | 3 | 0.031 | 0.24 | 0.08 | 0.031 | MOR05278 Fab (Fab, V domains shown) VH: QVQLVESGGGLVQPGGSLRLSCAASGFTFSSYGMSWVRQAPGKGLEWVSYIEPKLFWYATFYAASVKGRFTISRDNSKNTLYLQMNSLRAEDTAVYYCARNDFMEPAYFALWGQGTLVTVSS VL: DIELTQPPSVSVAPGQTARISCSGDNLGSYYAYWYQQKPGQAPVGVIYDDSERPSGIPERFSGSNSGNTATLTISGTQAEDEADYYCSSYTYSKNNVFGGGTKLTVLG
no binding | 144 | 1 | 1.2 |  |  |  |  |  |  | MOR05281 IgG4 (antibody, V domains shown, IgG4) VH: QVQLKESGPALVKPTQTLTLTCTFSGFSLSTRGVGVSWIRQPPGKALEWLALIYWDEDKYYSTSLKTRLTISKDTSKNQVVLTMTNMDPVDTATYYCARYQSGYYYNNDGWGVDIWGQGTLVTVSS VL: DIQMTQSPSSLSASVGDRVTITCRASQSISSWLNWYQQKPGKAPKLLIYAASSLQSGVPSRFSGSGSGTDFTLTISSLQPEDFATYYCQQYYAFPHTFGQGTKVEIKR
 |  |  |  | 2 | 2 | 0.001 | 0.07 | 0.06 | 0.001 | MOR05281 Fab (Fab, V domains shown) VH: QVQLKESGPALVKPTQTLTLTCTFSGFSLSTRGVGVSWIRQPPGKALEWLALIYWDEDKYYSTSLKTRLTISKDTSKNQVVLTMTNMDPVDTATYYCARYQSGYYYNNDGWGVDIWGQGTLVTVSS VL: DIQMTQSPSSLSASVGDRVTITCRASQSISSWLNWYQQKPGKAPKLLIYAASSLQSGVPSRFSGSGSGTDFTLTISSLQPEDFATYYCQQYYAFPHTFGQGTKVEIKR
